Tests used:
Assay in all cases: cell-based or functional assay
[1] = target: HIV-1 Env of pseudovirus 0260.v5.c36 (HIV-1)
[2] = target: HIV-1 Env of pseudovirus 1394C9G1(Rev-) (HIV-1)
[3] = target: HIV-1 Env of pseudovirus 191084 B7-19 (HIV-1)
[4] = target: HIV-1 Env of pseudovirus 246F C1G (HIV-1)
[5] = target: HIV-1 Env of pseudovirus 3365.v2.c2 (HIV-1)
[6] = target: HIV-1 Env of pseudovirus 7030102001E5(Rev-) (HIV-1)
[7] = target: HIV-1 Env of pseudovirus AC10.0.29 (HIV-1)
[8] = target: HIV-1 Env of pseudovirus BF1266.431a (HIV-1)
[9] = target: HIV-1 Env of pseudovirus BJOX010000.06.2 (HIV-1)
[10] = target: HIV-1 Env of pseudovirus BJOX015000.11.5 (HIV-1)
[11] = target: HIV-1 Env of pseudovirus BJOX025000.01.1 (HIV-1)
[12] = target: HIV-1 Env of pseudovirus CAAN5342.A2 (HIV-1)
[13] = target: HIV-1 Env of pseudovirus Ce703010054_2A2 (HIV-1)
[14] = target: HIV-1 Env of pseudovirus Du172.17 (HIV-1)
[15] = target: HIV-1 Env of pseudovirus Du422.1 (HIV-1)
[16] = target: HIV-1 Env of pseudovirus HIV-16055-2.3 (HIV-1)
[17] = target: HIV-1 Env of pseudovirus P0402_c2_11 (HIV-1)
[18] = target: HIV-1 Env of pseudovirus Q23.17 (HIV-1)
[19] = target: HIV-1 Env of pseudovirus R3265.c06 (HIV-1)
[20] = target: HIV-1 Env of pseudovirus REJO4541.67 (HIV-1)
[21] = target: HIV-1 Env of pseudovirus SC422661.8 (HIV-1)
[22] = target: HIV-1 Env of pseudovirus T250-4 (HIV-1)
[23] = target: HIV-1 Env of pseudovirus T278-50 (HIV-1)
[24] = target: HIV-1 Env of pseudovirus THRO4156.18 (HIV-1)
[25] = target: HIV-1 Env of pseudovirus WITO4160.33 (HIV-1)
[26] = target: HIV-1 Env of pseudovirus X1193_c1 (HIV-1)
[27] = target: HIV-1 Env of pseudovirus X1254_c3 (HIV-1)
[28] = target: HIV-1 Env of pseudovirus ZM197M.PB7 (HIV-1)
[29] = target: HIV-1 Env of pseudovirus ZM53M.PB12 (HIV-1)

## N49P7 (antibody)
[1]
  neutralization IC50: 0.354 µg/mL
  neutralization IC80: 0.884 µg/mL
  neutralization MPI: 100
[2]
  neutralization IC50: 3.84 µg/mL
  neutralization IC80: 21.1 µg/mL
  neutralization MPI: 94
[3]
  neutralization IC50: 0.047 µg/mL
  neutralization IC80: 0.142 µg/mL
  neutralization MPI: 100
[4]
  neutralization IC50: 0.094 µg/mL
  neutralization IC80: 0.255 µg/mL
  neutralization MPI: 100
[5]
  neutralization IC50: 0.07 µg/mL
  neutralization IC80: 0.186 µg/mL
  neutralization MPI: 100
[6]
  neutralization IC50: 0.184 µg/mL
  neutralization IC80: 0.832 µg/mL
  neutralization MPI: 100
[7]
  neutralization IC50: 5.03 µg/mL
  neutralization IC80: 36.7 µg/mL
  neutralization MPI: 89
[8]
  neutralization IC50: 0.057 µg/mL
  neutralization IC80: 0.199 µg/mL
  neutralization MPI: 100
[9]
  neutralization IC50: 0.085 µg/mL
  neutralization IC80: 0.592 µg/mL
  neutralization MPI: 100
[10]
  neutralization IC50: 0.036 µg/mL
  neutralization IC80: 0.157 µg/mL
  neutralization MPI: 100
[11]
  neutralization IC50: 0.038 µg/mL
  neutralization IC80: 0.236 µg/mL
  neutralization MPI: 100
[12]
  neutralization IC50: 0.409 µg/mL
  neutralization IC80: 1.21 µg/mL
  neutralization MPI: 100
[13]
  neutralization IC50: 0.132 µg/mL
  neutralization IC80: 0.466 µg/mL
  neutralization MPI: 100
[14]
  neutralization IC50: 0.102 µg/mL
  neutralization IC80: 0.668 µg/mL
  neutralization MPI: 100
[15]
  neutralization IC50: 4.5 µg/mL
  neutralization IC80: 19.5 µg/mL
  neutralization MPI: 93
[16]
  neutralization IC50: 0.057 µg/mL
  neutralization IC80: 0.28 µg/mL
  neutralization MPI: 100
[17]
  neutralization IC50: 0.014 µg/mL
  neutralization IC80: 0.061 µg/mL
  neutralization MPI: 100
[18]
  neutralization IC50: 0.052 µg/mL
  neutralization IC80: 0.21 µg/mL
  neutralization MPI: 100
[19]
  neutralization IC50: 0.048 µg/mL
  neutralization IC80: 0.282 µg/mL
  neutralization MPI: 100
[20]
  neutralization IC50: 0.015 µg/mL
  neutralization IC80: 0.049 µg/mL
  neutralization MPI: 100
[21]
  neutralization IC50: 0.114 µg/mL
  neutralization IC80: 0.32 µg/mL
  neutralization MPI: 100
[22]
  neutralization IC50: 2.07 µg/mL
  neutralization IC80: 21.4 µg/mL
  neutralization MPI: 91
[23]
  neutralization IC50: 22.3 µg/mL
  neutralization IC80: > 50 µg/mL
  neutralization MPI: 75
[24]
  neutralization IC50: 2.34 µg/mL
  neutralization IC80: 12.4 µg/mL
  neutralization MPI: 99
[25]
  neutralization IC50: 0.084 µg/mL
  neutralization IC80: 0.248 µg/mL
  neutralization MPI: 100
[26]
  neutralization IC50: 0.016 µg/mL
  neutralization IC80: 0.06 µg/mL
  neutralization MPI: 100
[27]
  neutralization IC50: 2.97 µg/mL
  neutralization IC80: 13.6 µg/mL
  neutralization MPI: 100
[28]
  neutralization IC50: 0.109 µg/mL
  neutralization IC80: 0.347 µg/mL
  neutralization MPI: 100
[29]
  neutralization IC50: 0.251 µg/mL
  neutralization IC80: 0.8 µg/mL
  neutralization MPI: 100
